This data set relates to MS2 coat protein. The data set can be described thus: apparent KD of MS2 coat protein; designed switch direction (-1 OFF switch, 1 ON switch): -1; higher = weaker reporter binding. A digest of the protocol:
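Normalised cluster fluorescence was curve-fitted, and each design's median over clusters is its apparent KD. Before this, SNAP-549-labelled MS2 coat protein was titrated from 0.7 or 1.5 nM, doubling to 3 µM, over RNA switches transcribed on Illumina chips by stalled E. coli RNA polymerase. Titrations had no input, 200 uM small-molecule ligand, or an oligonucleotide input, and steps lasted 0.8–1.5 h (lowest) to 10–20 min (highest).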

[1] abbreviates: input ligand: microRNA oligo, concentration not stated.
Where [2] appears, read: Eterna round: R95, input ligand: FMN 200 uM.
[3] abbreviates: Eterna round: R95, input ligand: microRNA oligo, concentration not stated.
Where [4] appears, read: Eterna round: R95, input ligand: none.

Take “UAUUUAAUUAACAAGCUUUACAUGAGGAUCACCCAUGUGAUCAUGCUCGUCUUAGGUACAGGCUUCGGCCUGUACCA [Stov1/6-B2] (Eterna round: R97, puzzle: Sensor, turn-off variant 1)”: the “apparent KD of MS2 coat protein” value (input ligand: FMN 200 uM) is 51.8 nM and the “apparent KD of MS2 coat protein” value (input ligand: none) amounted to 55.9 nM.
Turning to “UAUUUCAUCUAUGGGAGUAACAUGAGGAUCACCCAUGUAUGUCUUGUUUUUUGUUCGUCUAAGACUUUCUGAUCAGU [JR_SV3TOV1_Sub031] (Eterna round: R96, puzzle: Sensor v3, turn-off variant 1)”, the “apparent KD of MS2 coat protein” value (input ligand: FMN 200 uM) is 39.4 nM, the “apparent KD of MS2 coat protein” value under setting [1] is 43.1 nM and the “apparent KD of MS2 coat protein” value (input ligand: none) worked out at 35.6 nM.
As for “UAUUUCAUCUAUGGGAGUAACAUGAGGAUCACCCAUGUAUGUCUUGUUUUUUGUUCGUCUAAGACUUUCUGAUCAGU [JR_SV3TOV1_Sub031] (puzzle: Sensor v3, turn-off variant 1)”, the “apparent KD of MS2 coat protein” value runs as follows: under setting [2], 34.2 nM; under setting [3], 45.5 nM; under setting [4], 35.4 nM.
Regarding “UCAAAGUCAGGAUAUACAUGAGGAUCACCCAUGUAAAAUUUUAAUUUAAUUUGAAGGUGUAGAAGGGACAAACU [Ex3 #34] (Eterna round: R97, puzzle: Exclusion 3)”, the “apparent KD of MS2 coat protein” value was found to be 39.2 nM (input ligand: FMN 200 uM) and 38.8 nM (input ligand: none).
Taken in the same sequence, the figures for “UCAAGUUUUUAGAUUCUUAACAUGAGGAUCACCCAUGUGCUCGUCUUGUUGUACUAUCACUCGAAAGUGAUAGUACA (Eterna round: R97, puzzle: Sensor, turn-off variant 1)” were 43.5 nM and 46.4 nM.
As for “UCACGGGACUAAGGAUAUACAUGAUCCAUUUUUGUAGAAGGUAGAAUGUUAGAUCAUAAACUAAACAUGAGGAUCACCCAUGUU [JR_ExcNG1_Sub089] (Eterna round: R96, puzzle: Exclusion NG 1)”, the “apparent KD of MS2 coat protein” value under setting [1] came to 20.2 nM.
“UCACGGGAUUGAGGAUAUAUAUUAAUUUUUACAAUAGAAGGCAAAUUGUUAGUUUUUUCACUAUACAUGAGGAUCACCCAUGUU [JR_ExcBG1_Sub079] (Eterna round: R96, puzzle: Exclusion NG 1)”: the “apparent KD of MS2 coat protein” value under setting [1] came to 18.9 nM.
Regarding “UCACGGGAUUGAGGAUAUAUAUUAAUUUUUACAAUAGAAGGCAAAUUGUUAGUUUUUUCACUUUACAUGAGGAUCACCCAUGUU [JR_ExcBG1_Sub080] (Eterna round: R96, puzzle: Exclusion NG 1)”, under setting [1], the “apparent KD of MS2 coat protein” value turned out to be 19.6 nM.
“UCAUGUUAGCAGGAUAUGCUAUUUAUCUUUUAUGCAGAAGGGCUUACAUGAGGAUCACCCAUGUAUUAAGUCUU [JR_E6_Sub075] (puzzle: Exclusion 6)”: under setting [3], the “apparent KD of MS2 coat protein” value is 18 nM.
For “UCAUGUUUAGAGGAUAUGAUUACUUUGGAGUAAUCAGAAGGCUAGACAUGAGGAUCACCCAUGUCAUAACAUGA [Exclusion 6 - B - 15:c] (puzzle: Exclusion 6)”, the “apparent KD of MS2 coat protein” value under setting [2] amounted to 75.5 nM, the “apparent KD of MS2 coat protein” value under setting [3] was found to be 71.5 nM and the “apparent KD of MS2 coat protein” value under setting [4] stood at 61.3 nM.
In the case of “UCCAACCCUGUGAGGAUAUCGUCCAUUUUUUGUUACGAGAAGGCACAUGAGGAUCACCCAUGUUUUUUAUUUUU [JR_BMOE4_Sub079] (puzzle: Brourd's mod of Exclusion 4)”, the “apparent KD of MS2 coat protein” value under setting [3] is 23.8 nM.
For the sequence “UCCUAACAUGAGGAUCACCCAUGUCAGGAUAUCUACGUCAGAACCACGUAUGUAGGCGAGAGAAGGGACAGAGG [EX1 C.14] (Eterna round: R97, puzzle: Exclusion 1)”, the “apparent KD of MS2 coat protein” value reads like this: (input ligand: FMN 200 uM) 21 nM; (input ligand: none) 17.4 nM.
The like results for “UCCUCACAUGAGGAUCACCCAUGUGAGGAUAUGGGCCCGGGCCCGAAAGGGCCCGGGCCCAGAAGGCACUGGGU [MoB_2] (Eterna round: R97, puzzle: Exclusion 1)” were, in that order, 25 nM and 56.1 nM.
On to “UCCUGACAUGAGGAUCACCCAUGUGAGGAUAUGUGGAUCGAGACAACUCUCGGUCCGUGCAGAAGGCACAGGGC [EX1 A.20] (Eterna round: R97, puzzle: Exclusion 1)”, for which the “apparent KD of MS2 coat protein” value came out at 28.1 nM (input ligand: FMN 200 uM) and 20.3 nM (input ligand: none).
Taken in the same sequence, the figures for “UCGCAGUUAGGAUAUACAUGAGGAUCACCCAUGUGGCUCCGGACCGGCAACGAAUCACGUAGAAGGGACUGCAG [Eternabot (Original) Solution 24] (Eterna round: R97, puzzle: Exclusion 3)” were 20.4 nM and 16.8 nM.
The like results for “UCGCGCCAAGGAUAUACAUGAGGAUCACCCAUGUUGAAAGAAAAGUUGUCCGGUCCCAGUAGAAGGUGGUUCCC [Eternabot (L2) Solution 90] (Eterna round: R97, puzzle: Exclusion 3)” were, in that order, 23.5 nM and 58.4 nM.
Regarding “UCGCUCCGUGUAGGAUAUCGCCGUUCUAUUCGGCGAGAAGGACAUGAGGAUCACCCAUGUAUGUUAUUAUCACGCGUGGCGCGC [Design 56] (Eterna round: R96, puzzle: Exclusion NG 1)”, the “apparent KD of MS2 coat protein” value (input ligand: FMN 200 uM) was determined as 18.8 nM, the “apparent KD of MS2 coat protein” value under setting [1] was 8.79 nM and the “apparent KD of MS2 coat protein” value (input ligand: none) worked out at 15.4 nM.
For the sequence “UCGCUCCGUGUAGGAUAUCGUUGUACUCUGCGGCGAGAAGGACAUGAGGAUCACCCAUGUAUGUUAUUAUCACGCGUGGCGCAA [Design 68] (Eterna round: R96, puzzle: Exclusion NG 1)”, the “apparent KD of MS2 coat protein” value by setting is: (input ligand: FMN 200 uM) 21.5 nM; under setting [1], 17 nM; (input ligand: none) 19 nM.
“UCGCUGCGAGGAUAUACAUGAGGAUCACCCAUGUACGGGUCCGGGUCUUCGUCUAUUGGUAGAAGGCGCAGUGA [JL Laongeedie mod 8] (puzzle: Exclusion 3)”: under setting [3], the “apparent KD of MS2 coat protein” value is 43.6 nM.
Turning to “UCGCUGCGAGGAUAUACGUUCGCGCGCUUUCGUUUGCGCGUACAUGAGGAUCACCCAUGUAGAAGGCGCGCUGC [Apr-15 SS2-7] (puzzle: Exclusion 2)”, under setting [3], the “apparent KD of MS2 coat protein” value amounted to 13.7 nM.
The same measure, in the same setting: the value for “UCGGCGCGAGGAUAUGCGGUUUGUGCUUUGGGCCCUGGCGUACAUGAGGAUCACCCAUGUAGAAGGCGUGUUGC [Apr-15 SS2-49] (puzzle: Exclusion 2)” was 17.9 nM.
“UCGUGGUAAAUCAGAAGUUUCCUGAGCGGAGGAACUUUGACAUGAGGAUCACCCAUGUUGCUUUUUGCUCAUCUUAA [JR_SV3TOV2_Sub043] (puzzle: Sensor v3, turn-off variant 2)”: the “apparent KD of MS2 coat protein” value amounted to 15.3 nM under setting [2], 41.8 nM under setting [3] and 12.9 nM under setting [4].
Regarding “UCGUUCCGUGUAGGAUAUUGGCCUUCUCUGGGCCGAGAAGGACAUGAGGAUCACCCAUGUAUGUUAUUAUCACGCGUGGCGCAU [Design 84] (Eterna round: R96, puzzle: Exclusion NG 1)”, the “apparent KD of MS2 coat protein” value by setting is: (input ligand: FMN 200 uM) 181 nM; under setting [1], 22.9 nM; (input ligand: none) 25.1 nM.
For the sequence “UCGUUCCGUGUAGGAUAUUGGUCUCCCUCGGGCCGAGAAGGACAUGAGGAUCACCCAUGUAUGUUAUUAUCGCGCGUGGCGCAU [Design 90] (Eterna round: R96, puzzle: Exclusion NG 1)”, the “apparent KD of MS2 coat protein” value reads like this: (input ligand: FMN 200 uM) 29.5 nM; under setting [1], 17.8 nM; (input ligand: none) 24.1 nM.
With “UCUAGCUUUUUGCGUCAAGCAUUGAAGUCUGUGAUCGUAACAUGAGGAUCACCCAUGUAAGUUUUAUGUCGUCUUGU [JR_SV3TOV2_Sub098] (puzzle: Sensor v3, turn-off variant 2)”, the “apparent KD of MS2 coat protein” value by setting is: under setting [2], 47.8 nM; under setting [3], 41.4 nM; under setting [4], 63.3 nM.
Consider “UCUCACUCAGGAUAUCUUCCGCAUGACAUGAGGAUCACCCAUGUGUGCAUGCCCUUUGGUAGAGAAGGGAGUGAGA [eternacac ex5r4 #5] (Eterna round: R97, puzzle: Exclusion 5)”, for which the “apparent KD of MS2 coat protein” value reads like this: (input ligand: FMN 200 uM) 22.7 nM; (input ligand: none) 24.4 nM.
Turning to “UCUCGCAGGCAAGGAUAUCCUACAUUGUUCUGGCCCGGGCAUGCUACAUGAGGAUCACCCAUGUGGGAGAAGGUGCGCCACGGC [Design 32] (Eterna round: R96, puzzle: Exclusion NG 2)”, the “apparent KD of MS2 coat protein” value reads like this: (input ligand: FMN 200 uM) 47.9 nM; under setting [1], 36 nM; (input ligand: none) 35.4 nM.
The like results for “UCUCGCUGGCGAGGAUAUCCUGUGCGGUUCCGGCUCGUGUCUGUUACAUGAGGAUCACCCAUGUGGGAGAAGGUGUCUGUGGCC [Design 96] (Eterna round: R96, puzzle: Exclusion NG 2)” were, in that order, 16.7 nM, 15.4 nM and 18.8 nM.
As to “UCUGCUUUAGGAUAUACGAGAUCCUGCGAUGUACUCUUCGGACAUGAGGAUCACCCAUGUAGAAGGAAAGCAGG [Eternabot (L2) Solution 20] (Eterna round: R97, puzzle: Exclusion 2)”, the “apparent KD of MS2 coat protein” value was found to be 96.4 nM (input ligand: FMN 200 uM) and 12.2 nM (input ligand: none).
Consider “UCUGUUUUGCGAGGAUAUCGACCAUUCCUCUUAACAUGAGGAUCACCCAUGUGCUAAUCCUACAACGAGAAGGCGCUCAUACUC [JR_ExcNG2_Sub066] (Eterna round: R96, puzzle: Exclusion NG 2)”, for which the “apparent KD of MS2 coat protein” value under setting [1] came out at 195 nM.
For “UCUUACUGAGGAUAUACAUAGAUUUACAUGAGGAUCACCCAUGUUCCUCUAUGUAUAAAUGUAGAAGGCAGAAGAU [Mat - Exclusion 5 - JL Mod - D54] (Eterna round: R97, puzzle: Exclusion 5)”, the “apparent KD of MS2 coat protein” value is, setting by setting: (input ligand: FMN 200 uM) 72.9 nM; (input ligand: none) 18 nM.
Consider “UCUUGUUGUCCUUGAUAAUACAUGAGGAUCACCCAUGUUAUUUUGAUUAUGAUGUGUAAGUUUGUUGCUCGUUUUAU [JR_STOV1_Sub069] (Eterna round: R97, puzzle: Sensor, turn-off variant 1)”, for which the “apparent KD of MS2 coat protein” value (input ligand: FMN 200 uM) came to 27.7 nM and the “apparent KD of MS2 coat protein” value (input ligand: none) is 30.9 nM.
